In patent US20120003668A1, “HIGH RESOLUTION COMPLEX STRUCTURE AND ALLOSTERIC EFFECTS OF LOW MOLECULAR WEIGHT ACTIVATORS ON THE PROTEIN KINASE PDK1” (UNIVERSITAET DES SAARLANDES, priority 2008, published 2012):
Residue numbers refer to the chain shown, from its start.

Key:
PDK1[Phe224Trp] [1] = target: T1, PDK1[Phe224Trp] (Homo sapiens, UniProt O15530, F224W); assay: Surface plasmon resonance (BiaCore) on biotin-P-HM-S6K chip, Phe224Trp mutant; assay type: binding; conditions: protein pre-incubated with PIFtide
T1 construct: The catalytic domain (CD) of PDK1 50-359 and its mutants Phe224Trp and Thr226Trp were expressed in insect cells and purified; made in house; host or cells: insect cells
T1 sequence (O15530 50-359 F224W): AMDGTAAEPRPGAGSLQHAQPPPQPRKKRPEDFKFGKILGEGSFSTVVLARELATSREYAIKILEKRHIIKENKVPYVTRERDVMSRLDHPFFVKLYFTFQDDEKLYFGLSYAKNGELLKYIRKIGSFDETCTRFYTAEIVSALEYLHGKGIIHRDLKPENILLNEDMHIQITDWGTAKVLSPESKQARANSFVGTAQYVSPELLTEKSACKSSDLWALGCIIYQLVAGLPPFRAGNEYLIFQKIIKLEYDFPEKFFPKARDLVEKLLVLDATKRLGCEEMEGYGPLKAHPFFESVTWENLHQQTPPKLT
Protocol: (§1) Surface Plasmon resonance (BiaCore) and alpha-screen interaction and displacement assays: Binding of GST-PDK1 to a P-HM-polypeptide derived from S6K1 shown in FIG. 6 was analysed by surface plasmon resonance on a BiaCore 3000 system using a streptavidin-coated Sensor chip (SA) and biotin-P-HM-polypeptide, as previously described (Biondi, R. M. et al., Embo. J. 20:4380-4390 (2001). The interaction of His-PDK1 with biotin-PIFtide and the displacement by compounds shown in FIG. 3 was performed using the alpha-screen Ni-Chelate kit (Perkin Elmer) on an Envision 2104 multilabel system (Perkin Elmer).
(§2) BiaCore analysis was performed as described previously (Biondi, R. M. et al., Embo. J. 19:979-988 (2000)). […] Since both mutants were performed on the same construct of PDK1, their mass should be very similar and therefore should also produce 600RU when all biotin-(P)HM-S6K polypeptides on the same chip are bound to the mutant PDK1 proteins. Unfortunately, when mutant PDK1 Phe224Trp and PDK1 Thr226Trp were analysed, the injection of the mutants at concentrations higher than 1.3 μM prompted unspecific effects, therefore making difficult the evaluation. […]

PDK1[Thr226Trp] = target: T2, PDK1[Thr226Trp] (Homo sapiens, UniProt O15530, T226W); assay: Surface plasmon resonance (BiaCore) on biotin-P-HM-S6K chip, Thr226Trp mutant; assay type: binding; conditions: protein pre-incubated with PIFtide
T2 construct: The catalytic domain (CD) of PDK1 50-359 and its mutants Phe224Trp and Thr226Trp were expressed in insect cells and purified; made in house; host or cells: insect cells
T2 sequence (O15530 50-359 T226W): T1 sequence (O15530 50-359 F224W) with W175F, T177W
Protocol: as §1, §2

PDK1[Phe224Trp] [2] = target: T1, PDK1[Phe224Trp]; assay: PDK1 protein kinase activity test with T308tide substrate, Phe224Trp mutant; assay type: biochemical; conditions: PDK1 CD 50-359, T308tide as substrate
Protocol: Protein kinase activity tests: PDK1 activity tests were performed essentially as previously described (Biondi, R. M. et al., Embo. J. 20:4380-4390 (2001); Balendran, A. et al., J. Biol. Chem. 275:20806-20813 (2000); Biondi, R. M. et al., Embo. J. 19:979-988 (2000)) using T308tide as a substrate for PDK1. In brief, PDK1 activity assay was performed at room temperature (22° C.) in a 20 μl mix containing 50 mM Tris pH 7.5, 0.05 mg/ml BSA, 0.1% β-mercaptoethanol, 10 mM MgCl2, 100 μM [γ^32P]ATP (5-50 cpm/pmol), 0.003% Brij, 150 ng PDK1, and T308tide (from 0.1 to 1 mM). When appropriate, the PDK1 activity assay was performed in a 96 well format and 4 μl aliquots spotted with on p81 phosphocellulose papers (Whatmann) using ep motion 5070 (Eppendorf), washed in 0.01% phosphoric acid, dried, and then exposed and analysed using PhosphoImager technology (Typhoon, GE Healthcare). Activity measurements were performed in duplicates with less than 10% difference between pairs. Experiments were repeated at least twice. PDK1 specific activity at 22° C. was approximately 0.25 U/mg when the substrate concentration was 0.1 mM T308tide. […]

[3] = target: T3, PDK1 50-359 [Y288G;Q292A] (Homo sapiens, UniProt O15530, Q292A/Y288G); assay: Amide 1H/2H exchange and mass spectrometry
T3 sequence (O15530 with tags, fused parts or gaps Y288G/Q292A): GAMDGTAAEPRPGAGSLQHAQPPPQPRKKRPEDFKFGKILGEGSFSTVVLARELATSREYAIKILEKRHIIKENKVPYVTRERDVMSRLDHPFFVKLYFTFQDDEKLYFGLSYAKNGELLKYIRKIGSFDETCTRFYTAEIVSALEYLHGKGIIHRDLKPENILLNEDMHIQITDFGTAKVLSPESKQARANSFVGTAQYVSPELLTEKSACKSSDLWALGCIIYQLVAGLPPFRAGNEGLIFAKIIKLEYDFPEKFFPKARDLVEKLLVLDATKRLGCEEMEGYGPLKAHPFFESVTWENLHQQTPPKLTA
Protocol: For local exchange analysis, the labeled proteins were digested with pepsin and the resulting polypeptides analyzed by tandem mass-spectrometry (LC-MS/MS) for their incorporation of deuterium atoms. The graphics represent the number of deuterium atoms incorporated into each polypeptide upon the stated incubation time in deuterated water. […] Over time, amide hydrogen atoms exchanged for deuteriums and the molecular weight of the protein increased. We repeated the ^1H/^2H exchange experiments at four different incubation times: 1, 5, 15 and 45 minutes. […] In the presence of peptide or small compounds, protein and ligand solution were pre-incubated on ice for 50 min before the mixture was diluted into labeling buffer. After the exchange reaction, samples were loaded on a pepsin column for one minute for digestion into peptides and samples quenched at each time point. They were then subjected to liquid chromatography for separation and analyzed by tandem mass-spectrometry (LC-MS/MS) for their incorporation of deuterium atoms. The entire plumbing system was immersed in an ice bath. 61 polypeptides were identified with overlapping regions, covering 80% of PDK1 sequence. As it is not possible to predict the cleavage sites of pepsin in the PDK1 sequence, it was necessary to identify the peptides generated by pepsin digestion for local-exchange analysis.

REPRILSEEEQEMFRDFDYIADWC [PIFtide]
displacement by PIFtide of PDK1[Phe224Trp] binding to the chip (PDK1[Phe224Trp] [1]): displaced
displacement by PIFtide of PDK1[Thr226Trp] binding to the chip (PDK1[Thr226Trp]): displaced
activation of PDK1[Phe224Trp] (PDK1[Phe224Trp] [2]): activated
global exchange protection, 2H less incorporated/PDK1 molecule ([3]; after 45 minutes, PIFtide 0.625 mM, PS48 500 μM, PS08 250 μM): 20 ^2H
2H less incorporated (protection), peptide 122-134 (α-C-helix) ([3]; first time point (1 min)): five
